Tests used:
[1] = target: the molecule itself; experiment: crystal structure; FSH-FSHRED complex at 10 mg/ml, 20 °C, hanging drops, 0.1 M imidazole pH 8.0, 20% Jeffamine M-600; space group P3_(1)
[2] = target: T1, human follicle-stimulating hormone receptor on CHO-DUKX cell membranes (human, UniProt P23945 18-695); experiment: radioligand binding; 5 μg CHO-FSHR membrane with increasing concentrations of 125I-ligand; 10 mM Tris pH 7.4, 5 mM MgCl2, 0.2% BSA; 90 min at 37 °C; filtration; nonspecific binding with 500-fold excess of FSH; no Compound 5; conditions: one partner purified
T1 construct: follicle-stimulating hormone receptor, human, expressed in CHO-DUKX cells; Used as isolated membranes, not live cells; also called FSHR; hFSHR; source: CHO-DUKX cells expressing the human FSH receptor, membrane preparation (nitrogen cavitation, 100,000 x g pellet)
T1 sequence (looked up): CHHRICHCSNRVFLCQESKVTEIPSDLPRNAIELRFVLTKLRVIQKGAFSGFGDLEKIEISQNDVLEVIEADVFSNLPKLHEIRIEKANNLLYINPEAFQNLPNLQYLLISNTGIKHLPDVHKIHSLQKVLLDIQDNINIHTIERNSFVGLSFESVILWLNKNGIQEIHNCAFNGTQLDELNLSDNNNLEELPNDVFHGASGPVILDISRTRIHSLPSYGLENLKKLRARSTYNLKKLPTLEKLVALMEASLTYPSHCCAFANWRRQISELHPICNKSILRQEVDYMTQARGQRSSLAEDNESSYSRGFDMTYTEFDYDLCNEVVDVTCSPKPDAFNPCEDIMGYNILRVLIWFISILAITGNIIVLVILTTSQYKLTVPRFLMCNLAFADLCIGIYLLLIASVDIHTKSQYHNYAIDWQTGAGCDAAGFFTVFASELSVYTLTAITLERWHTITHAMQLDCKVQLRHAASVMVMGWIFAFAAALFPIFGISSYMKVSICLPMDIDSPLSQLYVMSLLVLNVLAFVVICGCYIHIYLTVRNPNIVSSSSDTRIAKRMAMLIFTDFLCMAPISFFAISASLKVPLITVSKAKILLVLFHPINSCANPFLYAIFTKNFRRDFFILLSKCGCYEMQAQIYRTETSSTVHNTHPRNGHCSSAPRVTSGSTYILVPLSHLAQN

[3] = target: T1, human follicle-stimulating hormone …; experiment: as above; conditions: one partner purified; remark: listed apart in the source

B1: full ectodomain of human FSHR (FSHRED, Ser16-Arg366) (domain or fragment, UniProt P23945 16-366, looked up)
chain: SGCHHRICHCSNRVFLCQESKVTEIPSDLPRNAIELRFVLTKLRVIQKGAFSGFGDLEKIEISQNDVLEVIEADVFSNLPKLHEIRIEKANNLLYINPEAFQNLPNLQYLLISNTGIKHLPDVHKIHSLQKVLLDIQDNINIHTIERNSFVGLSFESVILWLNKNGIQEIHNCAFNGTQLDELNLSDNNNLEELPNDVFHGASGPVILDISRTRIHSLPSYGLENLKKLRARSTYNLKKLPTLEKLVALMEASLTYPSHCCAFANWRRQISELHPICNKSILRQEVDYMTQARGQRSSLAEDNESSYSRGFDMTYTEFDYDLCNEVVDVTCSPKPDAFNPCEDIMGYNILR
notes: follicle-stimulating hormone receptor, human, full ectodomain, residues Ser16-Arg366; Three copies form a trimer in the crystal; also called FSHED; FSHR extracellular domain
[1]
  stoichiometry N: 3

B2: 125I-N52D-FSH (FSH with Asn52 of the alpha-subunit mutated to aspartate) (ligand)
chain 1: not shown
chain 2: NSCELTNITIAIEKEECRFCISINTTWCAGYCYTRDLVYKDPARPKIQKTCTFKELVYETVRVPGCAHHADSLYTYPVATQCHCGKCDSDSTDCTVRGLGPSYCSFGEMKE
modifications: no glycan at position 52; 125I label (chain not stated)
notes: glycoprotein hormones alpha chain (FSH alpha-subunit), human; Heterodimer; the other three glycosylation sites are unchanged; also called αN52D-FSH mutant; mutant-N52D; source: recombinant, prepared using the same protocols as the fully glycosylated FSH; 125I-labelled (PerkinElmer Life Sciences)
[2]
  receptor binding ratio of the N52D mutant to fully glycosylated FSH: ~3
[3]
  Kd: 400 pM
